Substrate: Nc1ncnc2c1ncn2[C@@H]1O[C@H](COP(=O)(O)OP(=O)(O)OP(=O)(O)O)[C@@H](O)[C@H]1O
Assay: purified protein
Conditions: no DNA, 100 mM MgCl2

B1: MutS (Escherichia coli K-12) (protein)
chain: MSAIENFDAHTPMMQQYLRLKAQHPEILLFYRMGDFYELFYDDAKRASQLLDISLTKRGASAGEPIPMAGIPYHAVENYLAKLVNQGESVAICEQIGDPATSKGPVERKVVRIVTPGTISDEALLQERQDNLLAAIWQDSKGFGYATLDISSGRFRLSEPADRETMAAELQRTNPAELLYAEDFAEMSLIEGRRGLRRRPLWEFEIDTARQQLNLQFGTRDLVGFGVENAPRGLCAAGCLLQYAKDTQRTTLPHIRSITMEREQDSIIMDAATRRNLEITQNLAGGAENTLASVLDCTVTPMGSRMLKRWLHMPVRDTRVLLERQQTIGALQDFTAGLQPVLRQVGDLERILARLALRTARPRDLARMRHAFQQLPELRAQLETVDSAPVQALREKMGEFAELRDLLERAIIDTPPVLVRDGGVIASGYNEELDEWRALADGATDYLERLEVRERERTGLDTLKVGFNAVHGYYIQISRGQSHLAPINYMRRQTLKNAERYIIPELKEYEDKVLTSKGKALALEKQLYEELFDLLLPHLEALQQSASALAELDVLVNLAERAYTLNYTCPTFIDKPGIRITEGRHPVVEQVLNEPFIANPLNLSPQRRMLIITGPNMGGKSTYMRQTALIALMAYIGSYVPAQKVEIGPIDRIFTRVGAADDLASGRSTFMVEMTETANILHNATEYSLVLMDEIGRGTSTYDGLSLAWACAENLANKIKALTLFATHYFELTQLPEKMEGVANVHLDALEHGDTIAFMHSVQDGAASKSYGLAVAALAGVPKEVIKRARQKLRELESISPNAAATQVDGTQMSLLSVPEETSPAVEALENLDPDSLTPRQALEWIYRLKSLV
Km (low affinity site): 6.8 ± 0.6 µM
kcat (low affinity site): 0.0317 ± 0.00067 s⁻¹

B2: MutS (Escherichia coli K-12; D693N) (protein)
chain: MSAIENFDAHTPMMQQYLRLKAQHPEILLFYRMGDFYELFYDDAKRASQLLDISLTKRGASAGEPIPMAGIPYHAVENYLAKLVNQGESVAICEQIGDPATSKGPVERKVVRIVTPGTISDEALLQERQDNLLAAIWQDSKGFGYATLDISSGRFRLSEPADRETMAAELQRTNPAELLYAEDFAEMSLIEGRRGLRRRPLWEFEIDTARQQLNLQFGTRDLVGFGVENAPRGLCAAGCLLQYAKDTQRTTLPHIRSITMEREQDSIIMDAATRRNLEITQNLAGGAENTLASVLDCTVTPMGSRMLKRWLHMPVRDTRVLLERQQTIGALQDFTAGLQPVLRQVGDLERILARLALRTARPRDLARMRHAFQQLPELRAQLETVDSAPVQALREKMGEFAELRDLLERAIIDTPPVLVRDGGVIASGYNEELDEWRALADGATDYLERLEVRERERTGLDTLKVGFNAVHGYYIQISRGQSHLAPINYMRRQTLKNAERYIIPELKEYEDKVLTSKGKALALEKQLYEELFDLLLPHLEALQQSASALAELDVLVNLAERAYTLNYTCPTFIDKPGIRITEGRHPVVEQVLNEPFIANPLNLSPQRRMLIITGPNMGGKSTYMRQTALIALMAYIGSYVPAQKVEIGPIDRIFTRVGAADDLASGRSTFMVEMTETANILHNATEYSLVLMNEIGRGTSTYDGLSLAWACAENLANKIKALTLFATHYFELTQLPEKMEGVANVHLDALEHGDTIAFMHSVQDGAASKSYGLAVAALAGVPKEVIKRARQKLRELESISPNAAATQVDGTQMSLLSVPEETSPAVEALENLDPDSLTPRQALEWIYRLKSLV
Km (kcat unit not printed beside value): 34 µM

Reference: PMC2857095
